Source: the supplement of paper PMC7125110
± gives the standard error. This sample holds only a part of the variants without activity.

B1: glmS ribozyme (parent)
chain: AUAAAAGCGCCAGAACUACAGAAAUGUAGUUGACGAGGAGGAGGUUUAUCGAAUUUUCGGCGGAUGCCUCCAAA

Columns and labels:
Conditions in all cases: with glucosamine-6-phosphate
glucosamine-6-phosphate [1] = variants of: B1; assay: self-cleavage kobs at 40 uM GlcN6P; higher = faster cleavage; RNA array
Outline: (§1)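 Over ~14 h at 37 °C, tiles were imaged as glucosamine-6-phosphate (40 μM to 10 mM) in HEPES/KCl/Mg(OAc)2 buffer flowed across sequenced MiSeq chips. The chips carried barcoded ribozyme variants transcribed in situ by E. coli RNA polymerase and tracked with a hybridised Cy3 probe. After normalisation to baseline and to non-cleaving reference variants, one- or two-exponential decay fits of per-tile medians gave kobs. kcat and KM followed from weighted Michaelis–Menten fits across concentrations.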

glucosamine-6-phosphate [2] = variants of: B1; assay: self-cleavage kobs at 10000 uM GlcN6P; higher = faster cleavage; RNA array
Outline: as §1

glucosamine-6-phosphate [3] = variants of: B1; assay: self-cleavage kobs at 160 uM GlcN6P; higher = faster cleavage; RNA array
Outline: as §1

glucosamine-6-phosphate [4] = variants of: B1; assay: self-cleavage kobs at 640 uM GlcN6P; higher = faster cleavage; RNA array
Outline: as §1

glucosamine-6-phosphate [5] = variants of: B1; assay: self-cleavage kobs at 2500 uM GlcN6P; higher = faster cleavage; RNA array
Outline: as §1

Variant | self-cleavage kobs at 40 uM GlcN6P (glucosamine-6-phosphate [1]) | self-cleavage kobs at 10000 uM GlcN6P (glucosamine-6-phosphate [2]) | self-cleavage kobs at 160 uM GlcN6P (glucosamine-6-phosphate [3]) | self-cleavage kobs at 640 uM GlcN6P (glucosamine-6-phosphate [4]) | self-cleavage kobs at 2500 uM GlcN6P (glucosamine-6-phosphate [5])
AUAAACGCGCCAGAACUACAGAAAUGUAGUUCACGAGGAGGAGGUUUAGCGAAUUUUCGGCGGAUGCCUCCAAA [A6C G32C U49G] | < 1e-05 s⁻¹ | < 1e-05 s⁻¹ |  |  | 
AUAAAAGGACCAGAACUACAGAAAUGUAGUUGACGAGGUGGAGGUUGAUCGAAUUUUCGGCGGAUGCUUCCAAA [C8G G9A A39U U47G C68U] | < 1e-05 s⁻¹ |  |  |  | 
AUAAAAGCGCCAGUACUACAGAAAUGUAGUUGACGAGGAGGAGGUUUAUCGAUUUUUCGGCGGAUGCCUCUAAA [A14U A53U C71U] | 9.83e-05 ± 2.7e-05 s⁻¹ | 0.00546 ± 0.0013 s⁻¹ | 0.00021 ± 4.5e-05 s⁻¹ | 0.000509 ± 8.6e-05 s⁻¹ | 0.00145 ± 0.00032 s⁻¹
AUAAAAGCGCUAGAACUACAGAAAUGUAGUUCACGAGGAGGAGGUUUAUCGAAUGUUCGGCGGCUGCCUCCAAA [C11U G32C U55G A64C] | < 1e-05 s⁻¹ | < 1e-05 s⁻¹ |  | < 1e-05 s⁻¹ | 
AUAAAAGCGCCAGAACUACAGAAAUGUAGUUGACGAGGAGCAGGUUUAUCGAAUUUUCGGCGAGUGCCUCCAAA [G41C G63A A64G] | < 1e-05 s⁻¹ | < 1e-05 s⁻¹ |  |  | 
AUAAAAGCGCCUGAACUACAGAAAUGUAGUUGACGAGGAGGAGGUUUAUCGAUUUUUCGGCGGAUGCCUCCAAA [A12U A53U] | 0.00177 ± 0.00024 s⁻¹ | 0.112 ± 0.036 s⁻¹ | 0.00421 ± 0.00071 s⁻¹ | 0.0159 ± 0.0029 s⁻¹ | 0.0274 ± 0.007 s⁻¹
AUAAAAGCGCCAGAACUACAGAAAUGUAGUUUACGAGGAGGAGGUUUAUGGAAUUUUCGGCGGAUGCGUCCAAA [G32U C50G C68G] | 0.00012 ± 2.5e-05 s⁻¹ | 9.96e-05 ± 1.7e-05 s⁻¹ |  |  | 
AUAAAAGCGCCAGAACUACAGAAAUGUAGUUGACGAGGAGGAGGUUUAUCGAAUUUUGGGCGGCUGCCUCCAAA [C58G A64C] | < 1e-05 s⁻¹ |  | < 1e-05 s⁻¹ |  | 
AUAAAACCGCCAGAACUACAGAAAUGUAGUUGACGAGGAGGAGGUUUAUCGAAUUUUCGGCGGAUGUCUCCAAA [G7C C67U] | < 1e-05 s⁻¹ | < 1e-05 s⁻¹ | < 1e-05 s⁻¹ | < 1e-05 s⁻¹ | < 1e-05 s⁻¹
AUAAAAGCGCCAGAACUACAGAAAUGUAGUUGACGGCGAGGAGGUUUAUCGAAUUUUCGGCGGAUGCCUCCAAA [A36G G37C] | < 1e-05 s⁻¹ | < 1e-05 s⁻¹ | < 1e-05 s⁻¹ |  | 
AUAAAAGCGCCAGAACUACAGAAAUGUAGUUGAAGAGGAGGAGGUUUAUCGGAUUUUCGGCGGAUGCCUCCAAA [C34A A52G] | < 1e-05 s⁻¹ | < 1e-05 s⁻¹ | < 1e-05 s⁻¹ | < 1e-05 s⁻¹ | < 1e-05 s⁻¹
AUAAAAGCGCCAGGACUACAGAAAUGUAGUUGACGAGGAGGAGGUUUAUCGAGUUUUUGGCGGACGCCUCUAAA [A14G A53G C58U U65C C71U] | < 1e-05 s⁻¹ |  |  |  | 
AUAAAGGCGCCAGAACUACAGAAAUGUAGUUGACGUGGAGGAGGUUUAUUGAAUUUUCGGCGGAUGCCUCCAAA [A6G A36U C50U] | < 1e-05 s⁻¹ | < 1e-05 s⁻¹ |  | < 1e-05 s⁻¹ | 
AUAAAAGCGCCAGCCCUACAGAAAUGUAGUUGACGAGGAGGAGGUUUAUGGAAUUUUCGCCGGAUGUCUCCAAA [A14C A15C C50G G60C C67U] | 6.66e-05 ± 3e-05 s⁻¹ |  |  |  | 
AUAAAAGCGCCAGAUCUACAGAAAUGUAGUUGAGGAGGAGGAGGUUUAUCGAAUUUUCGGCGGAUUCCUCUAAA [A15U C34G G66U C71U] | < 1e-05 s⁻¹ | < 1e-05 s⁻¹ |  |  | 
AUAAAAGCGCCAGAACUACAGAAAUGUAGUUGACGGGGAGGAGGUUUAUCGAAUUUUCGGCGUAUGCCUCCAAA [A36G G63U] | < 1e-05 s⁻¹ | < 1e-05 s⁻¹ | < 1e-05 s⁻¹ | < 1e-05 s⁻¹ | < 1e-05 s⁻¹
AUAAAGGGGCCAGAACUACAGAAAUGUAGUUGGCGAGGAGGAGGUUUUUCGAAUUUUUGGCGGUUGCCUACAAA [A6G C8G A33G A48U C58U A64U C70A] | 3.84e-05 ± 1.7e-05 s⁻¹ | 0.000104 ± 3e-05 s⁻¹ |  |  | 
AUAAAAGCGCCAGAACUACAGAAAUGUAGUUGACGAGAAGGAUGUUUAUCGAAUUUUCGGCGGAUGUCUCCAAA [G38A G43U C67U] | < 1e-05 s⁻¹ | < 1e-05 s⁻¹ |  |  | 
AUAAAAGCGCCAGAACUACAGAAAUGUAGUUGACGAGGAGGAGGUUUAUCGUAUUUUCAGCGGAUGCCUCCAAA [A52U G59A] | < 1e-05 s⁻¹ | < 1e-05 s⁻¹ | < 1e-05 s⁻¹ | < 1e-05 s⁻¹ | < 1e-05 s⁻¹
AUAAAAGCGCGAGAACUACAGAAAUGUAGUUGACGAGGAGGAGGUAUAUCGAAUUUUCGGCGGAUGCCUCCAAA [C11G U46A] | < 1e-05 s⁻¹ | < 1e-05 s⁻¹ | < 1e-05 s⁻¹ |  | < 1e-05 s⁻¹
AUAAAAUCGCCAGAACUACAGAAAUGUAGUUAACGAGGAGGAAGUUUAUCGAAUUUUCGGCGGAUGCCUCCAAA [G7U G32A G43A] | < 1e-05 s⁻¹ | < 1e-05 s⁻¹ | < 1e-05 s⁻¹ | < 1e-05 s⁻¹ | 
AUAAAAGCGCCCGAACUACAGAAAUGUAGUUGACGAGGAGGGGGUUUAUCGAAUUUUCGGCGGAUGCCUACAAA [A12C A42G C70A] | < 1e-05 s⁻¹ | 2.91e-05 ± 1.2e-05 s⁻¹ |  |  | 
AUAAAAGCGCCAGAACUACAGAAAUGUAGUUGAAGAGGAGGAGUUUUAUCCAAUUUUCGGCGGAUGCCUCCAAA [C34A G44U G51C] | < 1e-05 s⁻¹ | < 1e-05 s⁻¹ |  | < 1e-05 s⁻¹ | < 1e-05 s⁻¹
AUAAAAGGGCCAGAACUACAGAAAUGUAAUUGACGAGGAGGAGGUUUAUCGAAUUUUCGGCGGAUGCCUCCAAA [C8G G29A] | < 1e-05 s⁻¹ | < 1e-05 s⁻¹ | < 1e-05 s⁻¹ | < 1e-05 s⁻¹ | < 1e-05 s⁻¹
